In experiment [1] the target is T1, DR4 expressed on the cell surface of cancer cells (HeLa, HCT-116) (human) (UniProt O00220).
T1 sequence (looked up): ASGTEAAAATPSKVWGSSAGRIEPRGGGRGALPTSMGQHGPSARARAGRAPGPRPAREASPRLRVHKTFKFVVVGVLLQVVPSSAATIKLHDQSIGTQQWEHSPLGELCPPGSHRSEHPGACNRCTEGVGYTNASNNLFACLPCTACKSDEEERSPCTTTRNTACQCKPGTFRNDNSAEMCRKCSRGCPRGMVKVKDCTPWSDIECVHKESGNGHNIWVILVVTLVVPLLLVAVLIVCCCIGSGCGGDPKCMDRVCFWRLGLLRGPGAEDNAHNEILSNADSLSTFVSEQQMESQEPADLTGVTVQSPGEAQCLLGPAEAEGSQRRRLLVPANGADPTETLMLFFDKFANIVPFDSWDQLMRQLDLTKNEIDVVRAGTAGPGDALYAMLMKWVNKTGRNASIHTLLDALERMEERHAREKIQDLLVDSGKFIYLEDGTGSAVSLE
The experiment can be described thus: cell-based or functional assay.

Experiment [2] concerns the target T2, DR4 expressed on the cell surface of cancer cells (HeLa, HCT-116) (human, UniProt O00220 24-468).
T2 construct: whole, on cells; also called death receptor 4; DR4 trimer
T2 sequence (looked up): T1 sequence (looked up)
The experiment can be described thus: inferred from apoptosis (MTT) assay on DR4-expressing HeLa and HCT-116 cells against DR4-negative HEK293 cells; no direct binding assay. The procedure: To this end, apoptosis-inducing effects of secretory humanized DR4 scFv antibody recombinant protein were analyzed using HeLa cells, a cervical cancer cell line expressing DR4 on the cell surface, and HCT-116 cells, a colon cancer cell line. […] Each of these three cells was inoculated in a culture dish and cultured overnight, and then the secretory humanized DR4 scFv antibody recombinant protein was added to the culture medium, and the degree of death of the cells during culturing was determined by MTT method (Cyto X™ Cell viability assay kit, LPS solution, Korea).

B1: humanized DR4 scFv chimeric antigen receptor (CAR) (protein, part only; not given: hinge, transmembrane and signaling domains, not shown: a dimerising Fc or GST; small tags and cut ends)
chain, part: EVQLVESGGGLVQPGGSLRLSCSASGFTFSSYSMQWVRQAPGKGLEYVAGIRSDGRYTNYGAAVKGRATISRDNSKNTVYLQMNSLRAEDTAVYYCAKGAYGYCGSTCAPYLGQIDAWGQGTLVTVSSGSTSGSGKPGSGEGSTKGSYELTQPPSVSVSPGQTVRITCSGGRYTYGWFQQKPGQAPVTVIYGNDKRPSNIPSRFSGSTSGSTVTLTISGVQAEDEADYYCGGADFSAGLFGGGTKLTVL
In experiment [1], B1 yielded a cytotoxicity of CAR expressing lymphocytes on HeLa cells against HEK293 cells (CellTox Green fluorescence, effector:target 10:1, 3 days) of 2 to 3 times.

B2: secretory humanized DR4 scFv antibody recombinant protein (scFv)
scFv: B1 chain, part
notes: Secreted from HEK293 cells transfected with pCMVFL-srkDR4 and purified through the His tag; no cleavage site is stated; also called secretory (soluble form) humanized DR4 scFv antibody fragment recombinant protein; humanized anti-DR4 scFv; not shown: Flag tag; IgG3 hinge; isoleucine zipper (ILZ) peptide; His6 tag
B2: the binding result in experiment [2] is “binds”.

Values taken from patent publication US20210147563A1 (GENEUIN TECH, published 2021).
